# Data: the supplement of paper PMC9112550, “Optimization of the antimicrobial peptide Bac7 by deep mutational scanning” (BMC Biology, 2022)
# Tested on: Escherichia coli TOP10
# Test: shrunken log2 fold change of peptide-encoding DNA abundance (4.5 h post-induction vs induction); higher = less antimicrobial activity (less host growth inhibition)
# Conditions: time post-induction: 4.5 h; library: site-saturation at positions 5, 18, 19, 20
# 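Further: peptides expressed intracellularly from a pBAD plasmid library in pooled LB shake-flask culture, induced with 0.3% L-arabinose, DNA abundance read by NGS, three biological replicates, DESeq2 with apeglm shrinkage.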
row,Sequence,shrunken log2 fold change
1,RRIRWRPPRLPRPRPRPSRHPRP,0.0203
2,RRIRQRPPRLPRPRPRPLHKPRP,0.0733
3,RRIRHRPPRLPRPRPRPWPIPRP,-0.00691
4,RRIRVRPPRLPRPRPRPNAWPRP,0.0914
5,RRIRNRPPRLPRPRPRPRQGPRP,-0.0662
6,RRIRTRPPRLPRPRPRPDKVPRP,-0.0275
7,RRIRDRPPRLPRPRPRPEYCPRP,-0.0172
8,RRIRHRPPRLPRPRPRPLTWPRP,-0.135
9,RRIRDRPPRLPRPRPRPTWYPRP,-0.238
10,RRIRMRPPRLPRPRPRPHHCPRP,-0.27
11,RRIRWRPPRLPRPRPRPCRIPRP,-0.113
12,RRIRRRPPRLPRPRPRPCNLPRP,-0.0686
13,RRIRGRPPRLPRPRPRPHCWPRP,0.69
14,RRIRGRPPRLPRPRPRPQHSPRP,-0.0223
15,RRIRWRPPRLPRPRPRPDTAPRP,-0.192
16,RRIRDRPPRLPRPRPRPAYAPRP,0.058
17,RRIRNRPPRLPRPRPRPKNQPRP,-0.54
18,RRIRSRPPRLPRPRPRPCIPPRP,-0.417
19,RRIRIRPPRLPRPRPRPLILPRP,-0.895
20,RRIRLRPPRLPRPRPRPNSYPRP,-0.3
21,RRIRFRPPRLPRPRPRPNVRPRP,0.0987
22,RRIRGRPPRLPRPRPRPEYGPRP,-0.0112

row,Sequence,shrunken log2 fold change
1,RRIRHRPPRLPRPRPRPLERPRP,-0.0962
2,RRIRSRPPRLPRPRPRPWLIPRP,-0.0422
3,RRIRFRPPRLPRPRPRPTTDPRP,-0.13
4,RRIRPRPPRLPRPRPRPIWSPRP,0.0653
5,RRIRTRPPRLPRPRPRPKSEPRP,-0.144
6,RRIRCRPPRLPRPRPRPLRHPRP,0.479
7,RRIRTRPPRLPRPRPRPPTKPRP,0.674
8,RRIRKRPPRLPRPRPRPLVGPRP,0.0773
9,RRIRERPPRLPRPRPRPGHWPRP,0.0159
10,RRIRCRPPRLPRPRPRPTCHPRP,0.0303
11,RRIRDRPPRLPRPRPRPKMTPRP,0.093
12,RRIRRRPPRLPRPRPRPNKKPRP,-0.272
13,RRIRSRPPRLPRPRPRPHESPRP,-0.15
14,RRIRWRPPRLPRPRPRPTNVPRP,-0.0165
15,RRIRTRPPRLPRPRPRPGPFPRP,0.102
16,RRIRVRPPRLPRPRPRPGFMPRP,-0.152
17,RRIRFRPPRLPRPRPRPYNWPRP,-0.0539
18,RRIRYRPPRLPRPRPRPTMLPRP,-0.54
19,RRIRERPPRLPRPRPRPSEPPRP,0.227
20,RRIRKRPPRLPRPRPRPWNCPRP,0.0387
21,RRIRWRPPRLPRPRPRPANWPRP,0.273
22,RRIRWRPPRLPRPRPRPKVWPRP,0.68

row,Sequence,shrunken log2 fold change
1,RRIRWRPPRLPRPRPRPAEPPRP,0.256
2,RRIRVRPPRLPRPRPRPQGFPRP,-0.0921
3,RRIRHRPPRLPRPRPRPGPPPRP,0.228
4,RRIRARPPRLPRPRPRPSGKPRP,-0.0838
5,RRIRHRPPRLPRPRPRPCQIPRP,-0.0122
6,RRIRVRPPRLPRPRPRPQAKPRP,0.0434
7,RRIRDRPPRLPRPRPRPILQPRP,-0.0838
8,RRIRNRPPRLPRPRPRPHWMPRP,-0.0835
9,RRIRDRPPRLPRPRPRPFARPRP,0.579
10,RRIRERPPRLPRPRPRPTKSPRP,-0.00427
11,RRIRSRPPRLPRPRPRPFPHPRP,-0.16
12,RRIRCRPPRLPRPRPRPYYYPRP,-0.346
13,RRIRYRPPRLPRPRPRPPFWPRP,0.395
14,RRIRHRPPRLPRPRPRPPPHPRP,0.703
15,RRIRRRPPRLPRPRPRPFWRPRP,0.0251
16,RRIRSRPPRLPRPRPRPIKIPRP,-0.209
17,RRIRPRPPRLPRPRPRPWFYPRP,-0.543
18,RRIRARPPRLPRPRPRPKSYPRP,-0.145
19,RRIRDRPPRLPRPRPRPDVCPRP,0.833
20,RRIRHRPPRLPRPRPRPCQKPRP,-0.0102
21,RRIRERPPRLPRPRPRPSEEPRP,-0.0988
22,RRIRLRPPRLPRPRPRPTEGPRP,0.166

row,Sequence,shrunken log2 fold change
1,RRIRWRPPRLPRPRPRPSFWPRP,0.372
2,RRIRSRPPRLPRPRPRPAITPRP,-0.0725
3,RRIRIRPPRLPRPRPRPCISPRP,-0.32
4,RRIRPRPPRLPRPRPRPCWKPRP,-0.0855
5,RRIRPRPPRLPRPRPRPLSLPRP,0.0584
6,RRIRNRPPRLPRPRPRPWYTPRP,0.0349
7,RRIRKRPPRLPRPRPRPYDHPRP,-0.084
8,RRIRIRPPRLPRPRPRPRQKPRP,-0.028
9,RRIRWRPPRLPRPRPRPIVIPRP,-0.353
10,RRIRDRPPRLPRPRPRPSRNPRP,0.326
11,RRIRMRPPRLPRPRPRPCKMPRP,0.0367
12,RRIRIRPPRLPRPRPRPTVYPRP,-0.177
13,RRIRARPPRLPRPRPRPGEPPRP,0.601
14,RRIRFRPPRLPRPRPRPSEMPRP,-0.148
15,RRIRCRPPRLPRPRPRPYMRPRP,-0.142
16,RRIRMRPPRLPRPRPRPWWRPRP,0.494
17,RRIRRRPPRLPRPRPRPILPPRP,0.177
18,RRIRRRPPRLPRPRPRPNGVPRP,0.00234
19,RRIRARPPRLPRPRPRPKTFPRP,-0.0543
20,RRIRNRPPRLPRPRPRPDGPPRP,0.01
21,RRIRARPPRLPRPRPRPENPPRP,1.14
22,RRIRYRPPRLPRPRPRPPIGPRP,-0.0423

row,Sequence,shrunken log2 fold change
1,RRIRPRPPRLPRPRPRPAGGPRP,0.269
2,RRIRDRPPRLPRPRPRPANPPRP,0.234
3,RRIRSRPPRLPRPRPRPNQIPRP,0.0721
4,RRIRSRPPRLPRPRPRPMGGPRP,0.334
5,RRIRGRPPRLPRPRPRPNSHPRP,0.285
6,RRIRGRPPRLPRPRPRPCQDPRP,-0.233
7,RRIRRRPPRLPRPRPRPAEEPRP,0.618
8,RRIRPRPPRLPRPRPRPCVAPRP,0.51
9,RRIRNRPPRLPRPRPRPPISPRP,0.129
10,RRIRPRPPRLPRPRPRPNHSPRP,-0.553
11,RRIRMRPPRLPRPRPRPYVHPRP,-0.0522
12,RRIRERPPRLPRPRPRPNWKPRP,-0.0166
13,RRIRFRPPRLPRPRPRPELKPRP,-0.0455
14,RRIRERPPRLPRPRPRPMFMPRP,-0.468
15,RRIRQRPPRLPRPRPRPPNCPRP,0.0242
16,RRIRTRPPRLPRPRPRPFLAPRP,-0.0751
17,RRIRWRPPRLPRPRPRPEWHPRP,0.595
18,RRIRMRPPRLPRPRPRPSKPPRP,0.0519
19,RRIRCRPPRLPRPRPRPNKIPRP,-0.461
20,RRIRCRPPRLPRPRPRPYANPRP,-0.0471
21,RRIRWRPPRLPRPRPRPWSPPRP,-0.0542
